# B1: TPR t1 (parent)
# chain: GACCAAUCUGCCCUCAGAGCUCGAGAACAUCUUCGGAUGCAGAGGAGGCAGGCUUCGGUGGCGCGAUAGCGCCAACGUCCUCAACCUCCAAUGCAUCCCACCACAUGAUGAUGCCUGAAGAGCCUUGGUUUUUUG
# Variants of: B1
# Assay: polymerase ribozyme fitness, log enrichment relative to wild type (log ratio); higher = more active; in vitro selection for triplet polymerase activity
# Outline: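 PCR was used to build mutant libraries for each subunit of a heterodimeric triplet polymerase ribozyme, which were then transcribed. A single in vitro selection round, in triplicate, used a frozen incubation at −7 °C and recovered extended constructs by gel excision, streptavidin beads and RT-PCR. Fitness is the logarithm of genotype enrichment relative to wild-type enrichment, averaged over replicates with inverse-variance weights. The logarithm is base 2, and after Illumina sequencing only genotypes with ≥10 input reads and ≥1 read per output were kept.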
row,Variant,polymerase ribozyme fitness (log ratio)
1,GACCAAUCGGCCCUCAGAGCUCGAGAACAUCUUCGAAUGCAGAGGAGGCAGGCUUCGGUGGCGCGAUAGCGCCAACGUCCUCAACCUCCAAUGCAUCCCACCACAUGAUGAUGCCUGAAGAGCCUUGGUUUUUUG [U9G G36A],-0.196
2,GACCAAUCUGCCCUCAUAGCUCGAGAACAUCUUCGGAUGCAGAGGAGGCAGGCUUCGGUGGCGCGAUAGGGCCAACGUCCUGAACCUCCAAUGCAUCCCACCACAUGAUGAUGCCUGAAGAGCAUUGGUUGUUUG [G17U C70G C82G C124A U131G],-4.66
3,GACCAAUCUGCCCUCAGAGCUCGAGAACAUCUUCGGAUGCAGAGGAGGCAGGCUCCGGUGUCGCGAUAGCGCCAACGUCCUCAACCUCCAAUGCAUCCCACCACAUGAUGAUACCUGAAGAGCCUUGGUUUUUUG [U55C G61U G113A],-1.64
4,GACCAUUCUGCUCUCAGAGCUCGAGAACAUCUUCGGAUGCAGAGGAGGCAGGCUUUGGUGGCGCGAUAGCGCCAACGUCCUCAACCUCCAAUGCGUCCCACCACAUGAUGAUGCCUGAAGAGCCUUGGUUUUUUG [A6U C12U C56U A95G],-0.128
5,GACCAAUCUGCCCUCAGAGCUCGAGAACAUCUUCGGAUGCAGAGGAGGCAGGCUUCGGUGGUGCGAUAGCGCCAACGUCCUCAACCUCCAAUGCAUCCCAUCACAUGAUGAUGCCUGAAGAGCCUUGGUUUUUUG [C62U C101U],-0.317
6,GACCAAUCUGCCCUCAGAGCUCGAGAACAUCUUCGGAUGCAGAGGAGGCAGGCUUCGGUGGCGCGAUAGCGCCAACGUCCUCAACCUCCAAAGCAUCCCACCACAUGAUGAUGCCUGAAGUGCCGUGGUUUUUUG [U92A A121U U125G],-1.83
7,GACCAAUCUGCCCUCAGAGCUCGAGAACAUCUUCGGAUACAGAGGAGGCAUGCUUCGGUGGCGCGAUAGCGCCAACGACCUCAACCUCCAAUGCAUCCCACCACAUGAUGAUGCCUGAAGAGCCUUGGUUUUUUG [G39A G51U U78A],-4.54
8,GACCAAUCUGCCCUCAGAGCUCGAGAACAUCUUCGGAUGCAGAGGAGCCAGGCUUCGGUGGCGCGAUAGCGCCAACGUCCUCAACCUCCAAUGCAUCCCACCACAUGAUCAUGCCGGAGGAGACUUGGUUUUUUG [G48C G110C U116G A119G C123A],-5.26
9,GACCAAUCGGCCCUCAGAGCUCGAGAACAUCUUCGGAUGCAGAGGAGGCAGGCUUCGGUGGCGCGAUAGCGCCAACGUCCUCAACCUCCAAUGCAUCCCACCACAUGAUGAUGCCUGAAGAGCCUUGGUUUUUUG [U9G],0.36
10,GACCAAUCUGCCCUCAGAGCUCGAGAACAUCUUCGGAUGCAGAGGAGGCAGGCUUCGGUGGCGCGAUAGCGCCAACGUCCUCAACCUCAAAUGCAUCCCAACACAUGAUGAUGCCUGAAGAGCCUUGGUUUUUUG [C89A C101A],-2.25
11,GACCAAUCUGCCCUCAGAGCUCGAGAACAUCUUCGGAUGCAGAGGAGGCAGGCUUCGGUGGCGCGAUAGCGCCAACGUCCUCAACCUCCAAUGUAUCUCACCACAUGAUGAUGCCUGAAUAGCCUUUGUUUUUUG [C94U C98U G120U G127U],-0.759
12,GACCAAUCUGCCCUCAGAGUUCGAGAACAUCUUCGGAUGCAGAGGAGGCAGGCUUCGGAGGCGCGAUAGCGCCAAGGUCCUCAACCUCCAAUGCAUCCCACCACAUGAUGAUGCCUGAAGAGCCUUGGUUUUUUG [C20U U59A C76G],-2.85
13,GACCAAUCUGCCCUCAGCGCUCGAGAACAUCUUCGGAUGCAGAGGAGGCAGGCUUCGGUGGCGCGAUAGCGCCAACGUCCUCAACCUCCAACGCAUCCCACCACAUGAUGAUGCCUAAAUAGCCUUGGAUUUUUG [A18C U92C G117A G120U U129A],-5.88
14,GACCAAUCUGCCCUCAGAGCUCGAGAACUUCUUCGGAUGCAGAGGAGGCAGGCUUCGGUGGCGCGAUAGCGCCAACGUCCUCAACCUCCAAUGCAUCCCACCACAUGAUGAUGCCUGAAGAGCUUUGGUUAUUUG [A29U C124U U131A],-0.63
15,GACCAAUCUGCCCUCAGAGCUCGAGAACAUCUUCGGAUGCAGAGGAGGCAGGCUUCGGUGGCGCGAUAGCGCGUACGUCCUCAACCUCUAAUGCAUCCCACCACAUGAUGAUGCCUGAAGAGCCUUGGUUUUUUG [C73G A74U C89U],-2.48
16,GACCAACCUGCCCACAGAGCUCGAGAACAUCAUCGGAUGCAGAGGAGGCAGGGUUCGGUGGCCCGAUAGCGCCAACGUCCUCAACCUCCAAUGCAUCCCACCACAUGAUGAUGCCUGAAAAGCCUUGGUUUUUUG [U7C U14A U32A C53G G63C G120A],-4.32
17,GACCAAUCUGCCCUCAGAGCUCGAGAACAUCUUCGGAUGCAGAGGAGGCAGGCUUCGGUGGCGCGGUAGCUCCAACGUCCUCAACCUCCAAUGAAUCCCACCACAUGAUGCUGCCUGAAGAGCCUUGGUUUUUUG [A66G G71U C94A A111C],-4.73
18,GACCAAUCUGCCCUCAGAGCUCGAGAACAUCUUCGGAUGCAGAGGAGGCAGGCUUCGGUGGCGCGAUAGCGCCAACGUCCUCAACCUCCAAUGCACCCCACCACAUGAUGAAGCCUGAAGUGCCUUGGUUUUUUG [U96C U112A A121U],1.86
19,GACCAUUCUGCCCUGAGAGCUCGAGAACAUCUUCGGAUGUAGAGGAGGCAGGCUUCGGUGCCGCGAUAGCGCCAACGUACUCAACCUCCAAUGCAUCCCACCACAUGAUGAUGCCUGAAGAGCCUUGGUUUUUUG [A6U C15G C40U G61C C79A],-6.15
20,GACCAAUCUGCCCUCAGAGCUCGAGAACAUCUUCGGAUGCAGAGCAGGCAGGCUUCGGUGACGCGAUAGCGCCAACGUCCUCAACCUCCAAUGCAUCCCACCACAUGAUGAUGCCUGAAGAGCCUUGGAUUUUUG [G45C G61A U129A],-0.659
21,GACCAAUCUGCCCUCAGAGCUCGAGAACAUCUUCGGAUGCAGAGGAGGCAGGCUUCGGUGGCGCGAUAGCGCCAACGUCCUCAACCUCCAAUGCAUCCCACCACAUGAUGACGCCUGAAGAGCCAUGGUUUUUUG [U112C U125A],1.63

row,Variant,polymerase ribozyme fitness (log ratio)
1,GACCAAUCUGCCCUCAGAGCUCGAGAACAUCUUCGGACGCAGAGGAGGCAGGCUUCGGUGGCACGAUAGCGCCAACCUCCUCAACCUCCAAUGCAUCCCACCACAUGAUGAUGCCUGAAGAGCCUUGGUUGUUUG [U38C G63A G77C U131G],-2.97
2,GACCAAGCUGCCCUCAGAGCUCGAGAACAUCUUCGGAUGCAGAGGAGGCAGGCUUCGGUGGCACGAUAGCGCCAACGUCCUCAACCUCCAAUGCAUCCCACCACAUGAUGAUGCCUGAAGAGCCUUGGUUUUUUG [U7G G63A],0.0919
3,GACCAAUCUGCCCUCAGAGCUCGAGAUCAUCUUCGGAUGCAGAGGAGGCAGGCUUCGGUGGCGCGAUAGCGACAACGUCCUCAACCUCCAAUGCAUCCCACCACAUGAUGAUGCCUGAAGAGCCUUGGUUUUUUG [A27U C72A],-2.61
4,GACCAAUCUGCCCUCAGAGCUCGAGAACAUCUUCGGAUGCAGAGGAGGCAGGCUUCGGUGGCGCGAUAGCGCCAACGUCCUCUACCUCCAAUGCAUCCAACCACAUGAUGAUGCCUCAAGAGCCUUGGGUUUUUG [A83U C99A G117C U129G],-5.87
5,GACCAAUCUCCCCUCAGCGCUCGAGAACAUCUUCGGAUGCAGAGGAGGCAGGCUUCGGUGGUGCGAUAGCGCCAACGUCCUCAACCUCCAAUGCAUCCCACCACAUGAUGAUGCCUGAAGAGCCUUGGUUUUAUG [G10C A18C C62U U133A],-3.86
6,GACCAAUCUGCCCUCAGAGCUCGAGAACCUCUCCGGAUGCAGAGGAGGCAGGCUACGGUGGCGCGAUAGCGCCAACGUCCUCAACAUCCAAUGCAUCCCACCACAUGAUGAUGCCUGAAGAGCAUUGGUUUUUUG [A29C U33C U55A C86A C124A],-6.12
7,GACCAAUCUGCCCUCAGAGCUCGAGAACAUCUUCGGAUGCAGAGGAGGCAGGCUUCGGUGGCGCGAGAGCGCCAACGUCCUCAACCUCCAAGGCAUCCGACCACAUGAUGAUGCCUGAAGGGCCUUGGUUUUUUG [U67G U92G C99G A121G],-7.6
8,GACCAAUCUGCCCUCAGAGCUCGAGAAUAUCUUCGGAUGCAGAGGAGGCAGGCUUCGGUGGCGCGAUAGCGCCAACGUCCUCAACCUCUAAUGCAUCCCACCACAUGAUGAUGCCUGAAGAGCCUUGGUUUUUUG [C28U C89U],-2.51
9,GACCAAUCUGCCCUCAGAGCUCGAGAACAUCUUCGGAUGCAGAGGAGGCAGGCUUUGGUGGCGCGAUACCGCCAACGUCCUCAACCUCCAAUGCAUCCCACCACAUGAUGAUGGCUGAAGAGCCUUGGUUUUUUG [C56U G69C C114G],-6.88
10,GACCAAUCUGCCCUCAGAGCUCGAGAACAUCUUAGGAUGCAGAGCAGGCAGGCUUCGGAGGCGCGAUAGCGCCAACGUCCUCAACCUCCAAUGCAUCGCACCACAUGAUGAUGCCUGAAGAGCCUUGGUUUUUUG [C34A G45C U59A C98G],-3.73
11,GACCAAUCUGCCCUCAGAGCUCGAGAACAUCUUCGGAUGCAGAGGAGGCAGGCUUUGGUGGCGCGAUAGCGCCAACGUCCUCAACUUCUAAUGCAUCCCACCACAUGAUGAUGCCGGAAGAGCCUUGGUUUUUUG [C56U C86U C89U U116G],-2.41
12,GUCCAAUCUGCCCUCAGAGCUCGAGAACAUCUUCGGAUGCAGAUGAGGCAGGCUUCGGUGGCGCGAUAGUGCCAACGUCCUCAACCUCCUAUGCAUCCCACCACAUGAUGAUGCCUGAAGAGCCUUGGUUUUUUG [A2U G44U C70U A90U],-5.08
13,GACCAAUCUGCCCUCAGAGCUCGGGAACAUCUUCGGAUGCAGAGGAGGCAGGCUUCGGUGGCGCGAUAGCGCCAACGCCCUCAACCUCCAAUGCAUCCCACCACAUGAUGAUGCCUGAAGAGCCUUGGUUUUUUG [A24G U78C],-1.32
14,GACCAAUCUGCCCUCAGAGCUCGAGAACAUCUUCGGAUGCAGAGGAGGCAGGCUUCGGUGGCGCGAUAGCGCCAACGUCCUCAACCCCAAAUGCAUCCCACCACAUGAUGAUACCUGAAGAGCCUUGGUUUUUUG [U87C C89A G113A],-2.28
15,GACCAAUCUGCGCUCAGAUCUCGAGAACAUCUUCGGAUGCAGAGGAGGCAGGCUUCGGUGGCGCGAUAGCGACAACGUCCUCAACCUCCAAUGCAUCCCACCACAUGAUGAUGCCUGAAGAGCCUUGGUUUUUUG [C12G G19U C72A],-5.03
16,GACCAAUCUGCCCUCAGAGCUCGAGAACAUCUUCGGAUGCAGAGGAGGCAGGCUUCGGUGGCGCGAUAGCGCCAACGUCCUCAACCUCCAAUGCAUCCCUCCACAUGAUGAUGCCUGAAUAGCCUUGGUUUUUUG [A100U G120U],-1.23
17,GACCAAUCUGCCCUCAGAGCUCGAGAACAUCUUCGGAUGCAGAGGAGGCAGGGUUCGGUGGCUCGAUAGCGCCAACGUCCUCAACCUCCAAUGCAUCCCACCACAUGAUGAUGCCUGAAGAGCCUUGGUUUUUUG [C53G G63U],-2.05
18,GACCAAUCUGCCCUCAGAGCUCGAGAACAUCUUCGGAUGCAGAGGUGGCAGGCUUCGGUAGCGCGAUAGCGCCAACGUCCUCAACCUCCAAUGCAUCCCACCACAUGAUGAUGCCUGAAGAGCCUUGGUUUUUUG [A46U G60A],-1.55
19,GACCAAUCUGCCCUCAGAGCUCGAGAACAUCUUCGGAUGCAGAUGAGGCAGGCUUCGGUGGCGCGAUAGCGUCAAAGUCCUCAACCUUCAAUGCAUCCCACCACAUGAAGAUGCCUGAAGAGCCUUGGUUUUUUG [G44U C72U C76A C88U U109A],-5.19
20,GACCAAUCUGCCCUCAGAGCUCGAGAACAUCUUCGGAUGCAGAGGAGGCAGGCUUCGGUGGCGCGAUAGCGUCAACGUCUUAAACCUCCAAUGCAUCCCACCACAUGAUGAUGCCUGAAGAGCCUUGGGUUUUUG [C72U C80U C82A U129G],-2.75
21,GACCAAUCUGGCCUCAGAGCUCGAGAACAUCUUCGGAUACAGAGGAGGCAGGCUUCGGUGACGCGAUAGCGCCAACGUCCUCAACCUCCAAUGCAUCCCACCACAUGAUGAUGCCUGAAGAGCCUUGGUUUUUUG [C11G G39A G61A],-0.302

# Reference: the RNAGym collection of RNA variant scans (doi:10.1073/pnas.2313332121)
